The target of this test is recombinant gp41 of HIV-1 (ectodomain, amino acids 533-684, from clone pNL4-3), secreted from 293 cells (HIV-1 (infectious molecular clone pNL4-3)). Briefly: native gel or EMSA; Novex Native PAGE 4-20% Tris-Glycine gradient gel of purified gp41, Western blot with 2F5; single band below the 170 kDa marker. A general note: A gel shift assay detects complexes by their altered migration in electrophoresis.

As a reminder, the stoichiometry N is a count of units in the complex or per binding partner.

Take “recombinant gp41 of HIV-1 (ectodomain, amino acids 533-684, from clone pNL4-3), secreted from 293 cells (domain or fragment)”: the stoichiometry N amounted to 3.

The values above are taken from paper PMC5345815.
